In paper PMC2664613:

Biological target: F-actin (rabbit muscle actin polymerised in vitro) (rabbit) (UniProt P68135)
Experiment: co-sedimentation

Substance: GST-PICK1 (from UniProt Q9EP80 1-416) (natural protein)
- Kd: 300 nM
